Results reported in US11406723B2, “Radiotherapeutic and companion imaging agents to target MC1R” (H. LEE MOFFITT CANCER CENTER AND RESEARCH INSTITUTE, INC., priority 2015, dated 2022).
Several values for one entry are separate records, joined by “and”; a condition that tells them apart may be missing. Identical values can stand only once. Where a SMILES comes first, the peptide text is derived from it. Side-chain parts run from the residue outwards. [ ]: non-standard residue; d: D form. The star is where a group is joined. 1‑Phenylbutyric acid = 1-phenylbutyric acid N-terminal cap; DOTA = O=C(O)CN1CCN(CC(=O)O)CCN(CC(=O)*)CCN(CC(=O)O)CC1; Butanoyl(4-Ph) = O=C(CCCc1ccccc1)*; Ahx = NCCCCCC(=O)O

Tests used:
[1] = test system: A375/MC1R tumors; assay: Efficacy in SCID mice bearing A375/MC1R tumors; assay type: in vivo; conditions: after injection; control groups
Experimental: Mice were observed daily for health and twice per week weighed and tumor volumes measured by caliper. When the tumors reach 2000 mm^3 (experimental endpoint), animals were euthanized. Euthanizations prior to 2000 mm^3 were due to clinical endpoints, i.e. predominantly due to tumor ulceration.
1.9-3.3 μCi of MC1RL-DOTA-^225Ac, 1.8-2.7 μCi of scrambled peptide-DOTA-^225Ac, an excess of the cold agent (MC1RL-DOTA-^139La) and saline were injected to the SCID mice bearing A375/MC1R tumors injection (n=10 per group, volume of the tumors: 57-266 mm3). Mice were observed daily for health and twice per week weighed and tumor volumes measured by caliper. When the tumors reach 2000 mm^3 (experimental endpoint), animals were euthanized. Euthanizations prior to 2000 mm^3 were due to clinical endpoints, i.e. predominantly due to tumor ulceration.
These 2 mice are currently tumor free 150 days post injection. The other 7 treated mice were euthanized at an average of 86 days due to tumor ulceration without progression. While the median time-to-endpoint (tumor >2000 mm^3) of control mice treated with saline, MC1RL-DOTA-^139La (cold surrogate) and scrambled peptide-DOTA-^225Ac were 22, 24 and 32 days respectively after injection.

[2] = MTD study of the radiotherapeutic agent; assay type: in vivo, mice
Source text: FIGS. 6A, 6B and 6C are graphs from a MTD study of ^225Ac-DOTA-MC1RL radio-therapeutic agent.
(Table 3). […] Blood urea nitrogen (BUN) (FIG. 6B) and blood creatinine (FIG. 6C) levels, and pathology of a range of tissues including heart, lungs, brain, kidney and liver were all unremarkable.

[3] = molecular target: MC1R (Homo sapiens, UniProt Q01726); conditions: read-out: binding affinity (Ki); cited from earlier work
[4] = test system: A375/MC1R and A375 xenograft tumors; assay: In vivo tumor targeting, bilateral A375/MC1R and A375 xenografts, fluorescence imaging; set-up: species or system nude mice; conditions: 4 h post-injection, i.v., P≤0.05, n=3
Experimental: FIG. 3 contains data from in vivo targeting of a MC1R specific probe. Left mice: Representative images of normalized fluorescence intensity maps overlaid on mice bearing xenograft tumors. […] A blocking experiment (right mouse) was performed by coinjection of 0.25 μg unlabeled NDP-α-MSH and 3 nmol/kg of the MC1RL-800 probe. […] Right mouse: Representative tomographic image of a mouse bearing a B16F10 xenograft tumor at 4 h after injection of 3 nmol/kg of the MC1RL-800 imaging probe using the FMT 2500 LX quantitative fluorescence tomography in vivo imaging system (PerkinElmer).
Previously, to investigate tumor targeting of the infrared conjugate of the ligand in vivo, bilateral subcutaneous xenograft tumors with A375/MC1R engineered cells in the right flank and A375 parental cells with relatively low MC1R expression in the left flank of nude mice and MC1RL-800 probe was injected intravenously and fluorescence accumulation was monitored over time. […] In vivo blocking studies were performed to determine that probe retention in the tumor was due to specific binding (FIG. 3, left mice).

[5] = in vivo fluorescence imaging and mathematical model; cited from earlier work
[6] = molecular target: T1, MC1R (Hek293/MC1R cells) (Homo sapiens, UniProt Q01726); assay: Saturation TRF binding assay with europium-chelated compounds; conditions: Eu chelate; 20x MC1RL-DOTA used for blocking; two repeats; read-out: Kd, specific saturation binding
T1 construct: expressed in transfected cells; host or cells: Hek293
Source text: The binding sequence is 1-Phenylbutyric acid-His(D)Phe-Arg-Trp-Gly-Lys(Ahx-DOTA)-CONH2. Eu is chelated into the conjugated DOTA for lanthanide-based binding assays but ^225Ac, ^68Ga, or ^111In can also be chelated. […] 20×MC1Rl-DOTA was used for blocking. […] Data is the result of two repeats.
The binding sequence is 1-Phenylbutyric acid-His(D)Phe-Arg-Trp-Gly-Lys(DOTA)-CONH2. Eu is chelated into the conjugated DOTA for lanthanide-based binding assays but ^225AC, ^68Ga, or ^111In can also be chelated. […] 20×MC1Rl-DOTA was used for blocking. […] Data is the result of two repeats.
The binding sequence is 1-Phenylbutyric acid-His(D)Phe-Arg-Trp-Gly-Lys(D-di-Glu-DOTA)-CONH2. Eu is chelated into the conjugated DOTA for lanthanide-based binding assays but ^225Ac, ^68Ga, or ^111In can also be chelated. […] 20×MC1Rl-DOTA was used for blocking. […] Data is the result of two repeats.
Time-resolved fluorescence (TRF) competition binding assays were performed to determine binding affinities of these DOTA conjugates (FIG. 2). The TRF method takes advantage of the long fluorescence lifetime of the lanthanide Europium and can detect less than one attomole in a multiwell plate sample. Hek293/MC1R cells (Hek293 cells engineered to over-express MC1R) were used for the binding assays. […]

[7] = molecular target: T1, MC1R (Hek293/MC1R cells); assay: Time-resolved fluorescence (TRF) competition binding assay; conditions: competitive binding, read-out: binding affinity to MC1R (Ki)
Experimental: FIG. 2 is a graph from representative competitive binding assays of the ^139La- and ^69Ga-DOTA-MC1RL peptides.
Time-resolved fluorescence (TRF) competition binding assays were performed to determine binding affinities of these DOTA conjugates (FIG. 2). The TRF method takes advantage of the long fluorescence lifetime of the lanthanide Europium and can detect less than one attomole in a multiwell plate sample. Hek293/MC1R cells (Hek293 cells engineered to over-express MC1R) were used for the binding assays. Saturation TRF binding assays were performed using versions of the compounds with chelated europium to determine specific and non-specific binding (FIG. 17-20).

T1 sequence (Q01726 whole entry): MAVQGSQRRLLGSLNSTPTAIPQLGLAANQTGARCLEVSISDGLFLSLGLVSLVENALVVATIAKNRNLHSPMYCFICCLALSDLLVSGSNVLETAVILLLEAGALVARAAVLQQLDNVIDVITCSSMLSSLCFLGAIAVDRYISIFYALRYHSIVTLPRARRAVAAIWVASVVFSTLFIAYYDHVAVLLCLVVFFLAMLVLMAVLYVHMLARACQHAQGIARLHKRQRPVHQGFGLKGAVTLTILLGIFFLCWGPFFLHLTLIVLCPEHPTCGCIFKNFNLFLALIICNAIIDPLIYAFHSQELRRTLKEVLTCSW
Sequence of MC1R (Q01726 whole entry): as above

## N=C(N)NCCC[C@H](NC(=O)[C@@H](Cc1ccccc1)NC(=O)[C@H](Cc1c[nH]cn1)NC(=O)CCCc1ccccc1)C(=O)N[C@@H](Cc1c[nH]c2ccccc12)C(=O)NCC(=O)N[C@@H](CCCCNC(=O)CCCCCNC(=O)CN1CCN(CC(=O)O)CCN(CC(=O)O)CCN(CC(=O)O)CC1)C(N)=O (139La complex, metal not drawn) [^139La-DOTA-MC1RL] ({Butanoyl(4-Ph)}-H[dF]RWGK([Ahx-DOTA])-NH2)
[1]
  median time-to-endpoint (tumor >2000 mm^3): 24 days

## N=C(N)NCCC[C@H](NC(=O)[C@@H](Cc1ccccc1)NC(=O)[C@H](Cc1c[nH]cn1)NC(=O)CCCc1ccccc1)C(=O)N[C@@H](Cc1c[nH]c2ccccc12)C(=O)NCC(=O)N[C@@H](CCCCNC(=O)CCCCCNC(=O)CN1CCN(CC(=O)O)CCN(CC(=O)O)CCN(CC(=O)O)CC1)C(N)=O [^225Ac-DOTA-MC1RL, metal not drawn] ({Butanoyl(4-Ph)}-H[dF]RWGK([Ahx-DOTA])-NH2)
[2]; MTD study
  overall tolerability: tolerated extremely well
[2]; range of radioactivities
  behavior in MTD study: no signs of altered behavior
  blood creatinine level: unremarkable
  blood urea nitrogen (BUN) level: unremarkable
  pathology of tissues including heart, lungs, brain, kidney and liver: unremarkable
[2]; range of radioactivities, weight gain decreased with increased activity
  weight gain in MTD study: All mice gained weight

## MC1RL-800: near-infrared fluorescent (NIRF) dye conjugated analog of MC1RL, imaging probe ({1‑Phenylbutyric acid}-H[dF]RWGK-NH2; also: NIR dye 800 conjugate, site not given here)
[3]
  Ki: 0.4 ± 0.1 nM
[4]
  normalized fluorescence signal of low-MC1R A375 tumors compared to A375/MC1R tumors: significantly lower normalized fluorescence signal
[5]
  clearance: rapid renal clearance
  crossing of the blood brain barrier (BBB): does not cross the BBB

## N=C(N)NCCC[C@H](NC(=O)[C@@H](Cc1ccccc1)NC(=O)[C@H](Cc1c[nH]cn1)NC(=O)CCCc1ccccc1)C(=O)N[C@@H](Cc1c[nH]c2ccccc12)C(=O)NCC(=O)N[C@@H](CCCCNC(=O)CCCCCNC(=O)CN1CCN(CC(=O)O)CCN(CC(=O)O)CCN(CC(=O)O)CC1)C(N)=O [1-Phenylbutyric acid-His(D)Phe-Arg-Trp-Gly-Lys(Ahx-DOTA)-CONH2] ({Butanoyl(4-Ph)}-H[dF]RWGK([Ahx-DOTA])-NH2)
[6]
  Kd: 0.88 nM

## N=C(N)NCCC[C@H](NC(=O)[C@@H](Cc1ccccc1)NC(=O)[C@H](Cc1c[nH]cn1)NC(=O)CCCc1ccccc1)C(=O)N[C@@H](Cc1c[nH]c2ccccc12)C(=O)NCC(=O)N[C@@H](CCCCNC(=O)CCCCCNC(=O)CN1CCN(CC(=O)O)CCN(CC(=O)O)CCN(CC(=O)O)CC1)C(N)=O [DOTA-MC1RL] ({Butanoyl(4-Ph)}-H[dF]RWGK([Ahx-DOTA])-NH2)
[7]
  Ki: 0.24 nM and 0.3 nM
